{"source": "patent US11814663B2", "about": "“Microorganisms with improved 1,3-propanediol and butyric acid production” (METABOLIC EXPLORER, priority 2018, dated 2023)", "assay_type_in_all_cases": "biochemical, Clostridium acetobutylicum ATCC824", "key": {"[1]": {"molecular_target": "T1, Clostridium acetobutylicum glycerol kinase GlpK wt (glpK, CA_C1321, Uniprot Q97JG4), SEQ ID NO: 1 (Clostridium acetobutylicum, UniProt Q97JG4)", "T1 construct": "GlpK wt; Q97JG4; made in house; host or cells: E. coli BL21(DE3) star", "T1 sequence (Q97JG4 1-498)": "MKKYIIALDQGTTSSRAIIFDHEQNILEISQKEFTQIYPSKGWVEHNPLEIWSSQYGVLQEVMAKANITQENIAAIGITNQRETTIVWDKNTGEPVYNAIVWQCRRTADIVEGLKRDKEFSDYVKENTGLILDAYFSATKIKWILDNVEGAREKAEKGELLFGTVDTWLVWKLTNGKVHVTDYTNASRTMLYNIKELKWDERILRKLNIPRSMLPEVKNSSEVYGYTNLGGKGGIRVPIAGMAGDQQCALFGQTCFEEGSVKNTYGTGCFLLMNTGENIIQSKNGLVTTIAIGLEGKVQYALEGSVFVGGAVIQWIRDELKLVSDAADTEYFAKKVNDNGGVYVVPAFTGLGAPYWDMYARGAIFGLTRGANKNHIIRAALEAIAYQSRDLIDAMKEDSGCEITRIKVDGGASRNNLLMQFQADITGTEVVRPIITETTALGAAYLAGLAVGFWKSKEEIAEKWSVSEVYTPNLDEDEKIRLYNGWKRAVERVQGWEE", "assay": "Glycerol kinase activity towards glycerol (ADP appearance coupled to NADH oxidation), wild type", "settings": "pH 9, 30° C., 2 mM ATP, 0.01-50 mM glycerol", "from_the_text": "(§1) Three different point mutations were identified in glpK gene in the clone PD0557Vc05 leading to the mutant protein GlpK* with H22Y, A347T and V466M (table 2 above). In order to better characterize the effect of the mutations, we tested them individually or in combination. Therefore, the alleles coding for the mutated glycerol kinase were cloned into the expression plasmid pPAL7 (Biorad®) and the plasmids obtained were transformed into E. coli strain BL21(DE3) star to purify each mutated protein and perform biochemical experiments. […]\n(§2) The proteins were purified from the crude cell-extract by affinity on a Profinity column (BIORAD, Bio-Scale Mini Profinity exact cartridge 5 ml) according to the protocol recommended by the manufacturer. […] Protein concentration was measured using the Bradford protein assay.\n(§3) Determination of kinetic parameters of GlpK wild type and mutants Glycerol kinase activity (GLPK) that catalyses the following reaction: Glycerol+ATP=>Glycerol-3-Phosphate+ADP, was determined by measuring the ADP appearance by enzymatic coupling to NADH oxidation. […] The oxidation of NADH was monitored at 30° C. by absorbance at 340 nm on a spectrophotometer (λ340=6290 M^−1 cm^−1).\n(§4) One unit of enzyme activity was defined as the amount of enzyme catalyzing the decrease of 1 μmol of NADH per min. Kinetic parameters were determined with Sigmaplot by fitting to the Michaelis-Menten equation."}, "[2]": {"molecular_target": "T2, Clostridium acetobutylicum glycerol kinase GlpK variant GlpK*(H22Y/A347T/V466M), SEQ ID NO: 13 (Clostridium acetobutylicum, UniProt Q97JG4, A347T/H22Y/V466M)", "T2 construct": "made in house; host or cells: E. coli BL21(DE3) star", "T2 sequence (Q97JG4 1-498 H22Y/A347T/V466M)": "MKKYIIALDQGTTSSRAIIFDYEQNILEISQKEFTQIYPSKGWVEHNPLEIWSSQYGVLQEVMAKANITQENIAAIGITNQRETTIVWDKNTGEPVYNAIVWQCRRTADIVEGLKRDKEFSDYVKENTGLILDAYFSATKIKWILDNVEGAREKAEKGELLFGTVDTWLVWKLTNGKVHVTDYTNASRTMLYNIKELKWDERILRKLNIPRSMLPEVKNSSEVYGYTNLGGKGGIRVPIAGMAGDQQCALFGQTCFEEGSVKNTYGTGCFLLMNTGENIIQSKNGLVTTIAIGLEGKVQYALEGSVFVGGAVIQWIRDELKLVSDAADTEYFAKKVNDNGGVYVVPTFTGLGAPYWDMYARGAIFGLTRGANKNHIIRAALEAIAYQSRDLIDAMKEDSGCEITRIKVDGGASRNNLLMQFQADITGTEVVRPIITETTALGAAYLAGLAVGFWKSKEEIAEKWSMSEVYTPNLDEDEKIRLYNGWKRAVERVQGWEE", "assay": "Glycerol kinase activity towards glycerol (ADP appearance coupled to NADH oxidation), H22Y/A347T/V466M", "settings": "pH 9, 30° C., 2 mM ATP, 0.01-50 mM glycerol", "from_the_text": "as §1, §2, §3, §4"}, "[3]": {"substrate": "OCC(O)CO", "assay": "Glycerol kinase activity towards glycerol (ADP appearance coupled to NADH oxidation), H22Y/A347T/V466M", "settings": "other: GlpK* (H22Y/A347T/V466M), pH 9, 30° C., 2 mM ATP, 0.01-50 mM glycerol", "from_the_text": "Three different point mutations were identified in glpK gene in the clone PD0557Vc05 leading to the mutant protein GlpK* with H22Y, A347T and V466M (table 2 above). In order to better characterize the effect of the mutations, we tested them individually or in combination. Therefore, the alleles coding for the mutated glycerol kinase were cloned into the expression plasmid pPAL7 (Biorad®) and the plasmids obtained were transformed into E. coli strain BL21(DE3) star to purify each mutated protein and perform biochemical experiments.\nCultures of the seven strains 1 to 7 for the overproduction of the proteins were realized in a 2 L Erlenmeyer flask, using LB broth (Bertani, 1951) that was supplemented with 5 g/L glucose and 100 mg/L of ampicillin. An overnight culture was used to inoculate a 500 mL culture to an OD600 nm of about 0.15. The culture was first kept on a shaker at 37° C. and 200 rpm until OD600 nm was about 0.5 and then the culture was moved on a second shaker at 25° C. and 200 rpm until OD600 nm was 0.6-0.8 (about one hour), before induction with 500 μM IPTG. The culture was kept at 25° C. and 200 rpm until OD600 nm was around 4, and then it was stopped. Cells were centrifuged at 7000 rpm, 5 minutes at 4° C., and then stored at −20° C. This protocol was the same for strains 1 to 7.\nFor each strain, about 250 mg of E. coli biomass was suspended in 40 ml of 100 mM potassium phosphate pH 7.6, and a protease inhibitor cocktail. The cells suspension (15 ml per conical tube) was sonicated on ice (Bandelin sonoplus, 70 w) in a 50 ml conical tube during 8 cycles of 30 sec with 30 sec intervals. After sonication, cells were incubated for 30 min at room temperature with 5 mM MgCl2 and 1 UI/ml of DNaseI. Cells debris were removed by centrifugation at 12000 g for 30 min at 4° C.\nas §2, with “manufacturer. The crude extract was loaded on a 5 ml Profinity exact cartridge equilibrated with 100 mM potassium phosphate pH 7.6.” for “manufacturer.”\nas §3, §4"}}}
{"molecule": "OCC(O)CO", "note": "[glycerol]", "values": [{"measurement": "Kcat/km", "setting": "[1]", "value": "1.52e+06", "unit": "M⁻¹ s⁻¹"}, {"measurement": "Kcat/km", "setting": "[2]", "value": 33900, "unit": "M⁻¹ s⁻¹"}]}
{"molecule": "Clostridium acetobutylicum glycerol kinase GlpK variant GlpK*(H22Y/A347T/V466M), SEQ ID NO: 13 (Clostridium acetobutylicum ATCC 824; A347T/H22Y/V466M) (protein, GlpK*(H22Y/); made in house; host or cells: E. coli BL21(DE3) star) MKKYIIALDQGTTSSRAIIFDYEQNILEISQKEFTQIYPSKGWVEHNPLEIWSSQYGVLQEVMAKANITQENIAAIGITNQRETTIVWDKNTGEPVYNAIVWQCRRTADIVEGLKRDKEFSDYVKENTGLILDAYFSATKIKWILDNVEGAREKAEKGELLFGTVDTWLVWKLTNGKVHVTDYTNASRTMLYNIKELKWDERILRKLNIPRSMLPEVKNSSEVYGYTNLGGKGGIRVPIAGMAGDQQCALFGQTCFEEGSVKNTYGTGCFLLMNTGENIIQSKNGLVTTIAIGLEGKVQYALEGSVFVGGAVIQWIRDELKLVSDAADTEYFAKKVNDNGGVYVVPTFTGLGAPYWDMYARGAIFGLTRGANKNHIIRAALEAIAYQSRDLIDAMKEDSGCEITRIKVDGGASRNNLLMQFQADITGTEVVRPIITETTALGAAYLAGLAVGFWKSKEEIAEKWSMSEVYTPNLDEDEKIRLYNGWKRAVERVQGWEE", "values": [{"measurement": "Km", "setting": "[3]", "value": "39 ± 2", "unit": "µM"}, {"measurement": "Vmax", "setting": "[3]", "value": "1404 ± 13", "unit": "nmol/min/mg"}, {"measurement": "kcat", "setting": "[3]", "value": "1.32 ± 0.012", "unit": "s⁻¹"}, {"measurement": "kcat/Km", "setting": "[3]", "value": "33900 ± 2300", "unit": "M⁻¹ s⁻¹"}]}
